Source: the supplement of paper PMC11865577

Columns and labels:
Test in all cases: pull-down binding Z-score (relative to library population); higher = stronger binding
[1] = test system: TO-3-N3 (biotin conjugate); conditions: RNA library: Library-2
Summary of the method: (§1)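 An RNA library (1 μg) carrying a Cy5 or Cy3 end label was heat-folded in phosphate/NaCl/KCl buffer, then incubated for 60 min at 25 °C with streptavidin beads loaded with 100 pmol of biotin-conjugated small molecule. The beads were washed three times, and bound RNA was released in hot SDS and hybridised to a DNA barcode microarray for 20 h at 55.5 °C. Each binding score was derived by subtracting the signal from beads without compound, averaging the barcoded replicate probes after removing the highest and lowest, and expressing the result as a Z-score relative to the library mean and standard deviation.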

[2] = test system: TO-3-N3-2 (biotin conjugate); conditions: RNA library: Library-2
Summary of the method: as §1

TO-N3 (biotin conjugate) = conditions: RNA library: Library-2
Summary of the method: as §1

[3] = test system: G-clamp-N3 (biotin conjugate); conditions: RNA library: Library-1 (pre-miRNA loops + repeats)
Summary of the method: as §1

[4] = test system: TO-N3-2 (biotin conjugate); conditions: RNA library: Library-2
Summary of the method: as §1

| Sequence | pull-down binding Z-score [1] | pull-down binding Z-score [2] | pull-down binding Z-score (TO-N3 (biotin conjugate)) | pull-down binding Z-score [3] | pull-down binding Z-score [4] |
| --- | --- | --- | --- | --- | --- |
| GGCAGGAGGCAGUGAAGUAACUUGC [hsa-mir-3934] | 1 | 0.583 | 1.43 | -0.848 | 1.2 |
| UGAAUUGAAAUGCGUUACAUUCA [hsa-mir-95] | 0.0702 | -0.0666 | -0.0852 | -0.13 | 0.088 |
| GAGCCUGUCACAUCUCCAGACUC [hsa-mir-3925] | 0.0173 | -0.227 | -0.15 | -1.04 | 0.208 |
| CUGUUUCUGGUGAAAUAUUCAAACAG [hsa-mir-4433a] | 0.27 | -0.178 | -0.0687 | -0.293 | 0.256 |
| UGGAGCCAGGGGGCCCAGGUCUACAGCUUCUCCCCGCUCCC [hsa-mir-6752] | -0.138 | -0.105 | 0.328 | -0.438 | 1.2 |
| GCCUGUGUAGACGGGGACCUGCCCUGCAUGGGCACCCCCUCACUGGC [hsa-mir-6762] | 0.332 | 0.322 | 0.173 | -0.617 | 0.347 |
| GGAUCAUGUUUGCCCCCGUGGACAGCUCUCUGGUGUGCUCCUCCUGCCAUCCUGCCCACCCCUGCAUAAUGCUGCUUC [hsa-mir-6809] | 0.306 | 0.384 | 1.02 | -1.25 | 1.5 |
| UGCUCCUUGAACAGGAGGAGCA [hsa-mir-4708] | -0.48 | -0.405 | -0.683 | 1.09 | -0.535 |
| CUCAGAGGGCUGAAGUGGUUGUGGGGAGGGGCUUCUGGG [hsa-mir-4296] | 4.7 | 4.91 | 4.83 | 1.39 | 4.01 |
| GGCAGAAAUGUC [hsa-mir-8053] | -0.653 | -0.375 | -1.13 | 0.69 | -1.13 |
| GUUUCUGUUGUCUGAAAGGAAAGAAAG [hsa-mir-520e] | -0.489 | -0.346 | -0.486 | -1.01 | 0.25 |
| UCCUAGGCGGGUCGCUGCGGUACCUCCCUCCUGUCUGUGGCGGUGGGAUCCCGUGGCCGUGUUUUCCUGGUG [hsa-mir-663b] | -0.114 | -0.0831 | 0.683 | -0.826 | 1.55 |
| GUGGACAGAGGCAAAACUCUAACUUC [hsa-mir-6078] | -0.31 | -0.41 | 0.0919 | -1.45 | 0.491 |
| UCCGGCCGGCCAUGCUGGCGGGG [hsa-mir-762] | -0.72 | -0.506 | -0.676 | 0.45 | 0.213 |
| UCGUCAGUGUUUGA [hsa-mir-8073] | -0.443 | -0.295 | -0.468 | -0.342 | -0.296 |
| CUUUGCUACUGCUC [hsa-mir-6072] | -0.202 | -0.0975 | -0.000442 | -0.385 | 0.112 |
| GGCCGGUCAGGCA [hsa-mir-4689] | 0.391 | -0.106 | 0.576 | 1.09 | 0.682 |
| UGGCUUCUGCCUCUUUCUUUGUGGAAGCCA [hsa-mir-4269] | 0.255 | -0.369 | -0.118 | 1.04 | -1.13 |
| CCCUGCCCAGUGCAGGAG [hsa-mir-6069] | -0.42 | -0.478 | -0.817 | 0.386 | -0.914 |

| Sequence | pull-down binding Z-score [1] | pull-down binding Z-score [2] | pull-down binding Z-score (TO-N3 (biotin conjugate)) | pull-down binding Z-score [3] | pull-down binding Z-score [4] |
| --- | --- | --- | --- | --- | --- |
| UGGAGGUGAUGGAUGUUUUCCUCCG [hsa-mir-671] | -0.607 | -0.398 | -0.717 | -0.238 | -0.359 |
| GACCUGGAUGUGUAGGAGCUAAGACACACUCCAGGGG [hsa-mir-920] | 0.595 | 0.531 | 0.902 | 1.89 | 1.41 |
| CUGCUCUCCCUGGCAGCAAG [hsa-mir-7109] | -0.207 | -0.0188 | 0.283 | 1.5 | 0.6 |
| CUGGGGACUGUGUGGACUGGUAUCACCCAG [hsa-mir-2278] | -0.242 | -0.298 | 0.225 | 0.134 | 0.585 |
| UAAUAUGUAAUAUAAAUGUAUUG [hsa-mir-450a-2] | 0.202 | -0.134 | -0.167 | -0.938 | -0.926 |
| CUGCCCCUCGAAUCUGCUCCACGAUUUGGGCAG [hsa-mir-4436a] | 0.0656 | -0.181 | -0.337 | 0.401 | -0.521 |
| UGCUAUUAGAAAGUAAUGGCA [hsa-mir-548ba] | 0.757 | 0.507 | 0.776 | 0.465 | -0.00903 |
| AGCUUCUACGUCAUUCAGCACUUGCU [hsa-mir-5706] | -0.62 | -0.211 | -0.601 | -0.819 | -0.31 |
| CCCACUCCAAAGUUCACAGAAUGGGUGG [hsa-mir-541] | 2.05 | 0.837 | 1.8 | 0.626 | 1.15 |
| AUGGAGAACGCCCCCACCAGUUCCCAC [hsa-mir-6767] | 1.67 | 0.564 | 1.68 | -0.992 | 0.67 |
| CAUUUGUGGCAUGGACCAUUUGUG [hsa-mir-4504] | -0.874 | -0.518 | -0.959 | -0.183 | -0.813 |
| UGGGUUAAGCCGAGCUGG [hsa-mir-4507] | 0.478 | 0.297 | 0.872 | 1.25 | 1.05 |
| AACAUACAUUUGUCUUGGUGUGUU [hsa-mir-4684] | -1.01 | -0.744 | -1.44 | 3.35 | -1.35 |
| AUAUGAGCUUCAUUUAUACAUUUCAUAU [hsa-mir-556] | -0.0401 | -0.0541 | -0.335 | -0.528 | -1.01 |
| UUCAUAGGGAAGCCUUUCCAUGAA [hsa-mir-4738] | -0.542 | -0.446 | -0.559 | -0.912 | -0.574 |
| CAGCUUGCUCUGCUUU [hsa-mir-4303] | -0.387 | 0.0132 | -0.189 | 0.072 | 0.0746 |
| GAAGGGAAGCUGGGAACCUGACUGCCUC [hsa-mir-6867] | 0.688 | 0.402 | 0.961 | -0.151 | 1.66 |
| GCAAGGUUGUUGGUGAUAUGGCUUCCUCUC [hsa-mir-4685] | -0.179 | 0.0915 | 0.0508 | 0.872 | 0.538 |
